According to publication PMC4284093 (Journal of molecular biology, 2014):
One block for each molecule: values may come before it.

Assays:
[1] = biological target: KSAT3+KR3 (module 3 of 6-deoxyerythronolide B synthase without the ACP domain) (Saccharopolyspora erythraea); assay: SEC
[2] = biological target: KSAT3+KR3 (module 3 of 6-deoxyerythronolide B synthase without the ACP domain) (Saccharopolyspora erythraea); assay: SEC-SAXS
[3] = biological target: M3+TE (module 3 of 6-deoxyerythronolide B synthase fused to the TE domain) (Saccharopolyspora erythraea); assay: SEC-SAXS
[4] = biological target: DEBS3 (6-deoxyerythronolide B synthase 3; modules 5 and 6 and the TE domain) (Saccharopolyspora erythraea) (UniProt Q03133); assay: SEC-SAXS
[5] = biological target: the molecule itself; assay: SEC-SAXS

stoichiometry N [1]: 2 | stoichiometry N [2]: 2
Molecule: KSAT3+KR3 (module 3 of 6-deoxyerythronolide B synthase without the ACP domain) (domain or fragment)

stoichiometry N [3]: 2
Molecule: M3+TE (module 3 of 6-deoxyerythronolide B synthase fused to the TE domain) (enzyme)

stoichiometry N [4]: 2
Molecule: DEBS3 (6-deoxyerythronolide B synthase 3; modules 5 and 6 and the TE domain), Q03133 1-3172

B1: TE (terminal thioesterase domain of 6-deoxyerythronolide B synthase) (domain or fragment, Saccharopolyspora erythraea)
chain: QLDSGTPAREASSALRDGYRQAGVSGRVRSYLDLLAGLSDFREHFDGSDGFSLDLVDMADGPGEVTVICCAGTAAISGPHEFTRLAGALRGIAPVRAVPQPGYEEGEPLPSSMAAVAAVQADAVIRTQGDKPFVVAGHSAGALMAYALATELLDRGHPPRGVVLIDVYPPGHQDAMNAWLEELTATLFDRETVRMDDTRLTALGAYDRLTGQWRPRETGLPTLLVSAGEPMGPWPDDSWKPTWPFEHDTVAVPGDHFTMVQEHADAIARHIDAWLGGGNS
stoichiometry N [5]: 2
